# Reference: US9540654B2, “Synthetic brassica-derived chloroplast transit peptides” (Dow AgroSciences LLC, priority 2012, dated 2017)
# B1: TraP5: chloroplast transit peptide (SEQ ID NO:29) linked with dgt-28 (protein)
# chain: MQLLNQRQALRLGRSSASKNQQVAPLASRPASSLSVSASSVAPAPACSAPAGAGRRAVVVRA
# modifications: Chloroplast Transit Peptide
# B2: TraP23: chloroplast transit peptide (SEQ ID NO:41) linked with dgt-28 or dgt-31 (protein)
# chain: MAQINKSANGVRNASLISNFSNTRQAKSPFSLSCGTRLKNSSRGLKKVAVRLIGSRVKVSAS
# modifications: Chloroplast Transit Peptide
# B3: TraP8: chloroplast transit peptide (SEQ ID NO:30) linked with dgt-28 (protein)
# chain: MAQSSRICHGVQNPCVIISNLSKSNQNKSPFSVSLKTHQQQRRAYQISSWGLKKSNNGSVIRPVKA
# modifications: Chloroplast Transit Peptide
# B4: TraP13: chimeric chloroplast transit peptide SEQ ID NO:8, N-terminus from Arabidopsis thaliana, C-terminus from Brassica napus EPSPS (protein)
# chain: MAQVSRICNGVQNPSLISNLSKSSQRKSPLSVSLKTQQPRASSWGLKKSGTMLNGSVIRPVKVTASVS
# modifications: TraP13 chloroplast transit peptide
# How the values were obtained:
# [1] = tested on: Zea mays B104; assay: Post-emergence glyphosate tolerance of dgt-28 T0 corn (greenhouse); format: in vivo; conditions: for protection to glyphosate: T0 corn, dgt-28 linked to the transit peptide
# Method: Zea mays dgt-28 transformation events (T0) were allowed to acclimate in the greenhouse and were grown until plants had transitioned from tissue culture to greenhouse growing conditions (i.e., 2-4 new, normal looking leaves had emerged from the whorl). Plants were grown at 27° C. under 16 hour light:8 hour dark conditions in the greenhouse. The plants were then treated with commercial formulations of DURANGO DMA™ (containing the herbicide glyphosate) with the addition of 2% w/v ammonium-sulfate. Herbicide applications were made with a track sprayer at a spray volume of 187 L/ha, 50-cm spray height. T0 plants were sprayed with a range of glyphosate from 280-4480 g ae/ha glyphosate, which is capable of significant injury to untransformed corn lines. A lethal dose is defined as the rate that causes >95% injury to the B104 inbred.
# T0 events of dgt-28 linked with TraP4, TraP5, TraP8 and TraP23 were generated by Agrobacterium transformation and were allowed to acclimate under controlled growth chamber conditions until 2-4 new, normal looking leaves had emerged from the whorl. Plants were assigned individual identification numbers and sampled for copy number analyses of both dgt-28 and aad-1. Based on copy number analyses, plants were selected for protein expression analyses. Plants were transplanted into larger pots with new growing media and grown at 27° C. under 16 hour light:8 hour dark conditions in the greenhouse. Remaining plants that were not sampled for protein expression were then treated with commercial formulations of DURANGO DMA™ (glyphosate) with the addition of 2% w/v ammonium-sulfate. Treatments were distributed so that each grouping of plants contained T0 events of varying copy number. Herbicide applications were made with a track sprayer at a spray volume of 187 L/ha, 50-cm spray height. T0 plants were sprayed with a range of glyphosate from 280-4480 g ae/ha glyphosate capable of significant injury to untransformed corn lines. A lethal dose is defined as the rate that causes >95% injury to the B104 inbred. B104 was the genetic background of the transformants.
# [2] = tested on: tobacco (cv. Petit Havana); assay: Postemergence glyphosate tolerance of dgt-28 tobacco (T1, T2); format: in vivo; conditions: T1 tobacco, 2240 g ae/ha glyphosate, 14 DAT
# Excerpt: T1 resistant plants from each event used in the progeny testing were given unique identifiers and sampled for zygosity analyses of the dgt-28 gene. Zygosity data were used to assign 2 hemizygous and 2 homozygous replicates to each rate of glyphosate applied allowing for a total of 4 replicates per treatment. These plants were compared against wildtype Petite havana tobacco. All plants were sprayed with a track sprayer set at 187 L/ha. The plants were sprayed from a range of 560-4480 g ae/ha DURANGO DMA™. All applications were formulated in water with the addition of 2% w/v ammonium sulfate (AMS). Plants were evaluated at 7 and 14 days after treatment. Plants were assigned an injury rating with respect to overall visual stunting, chlorosis, and necrosis. The T1 generation is segregating, so some variable response is expected due to difference in zygosity.
# Rates of DURANGO DMA™ ranging from 420-3360 g ae/ha glyphosate were applied to 2-3 leaf tobacco as previously described.
# [3] = tested on: chloroplasts of the tobacco leaf tissue; assay: Tobacco transient assay, confocal microscopy of TraP-YFP; format: cell-based, Nicotiana benthamiana; conditions: Agrobacterium-infiltrated tobacco leaves
# Excerpt: The Trap12 and TraP13 chimeric chloroplast transit peptide sequences were initially tested via a transient in planta assay. Polynucleotide sequences which encode the Trap12 (SEQ ID NO:5) and TraP13 (SEQ ID NO:7) chimeric chloroplast transit peptide sequences were synthesized. A linker sequence (SEQ ID NO:10) was incorporated between the TraP sequence and the yfp coding sequence. The resulting constructs contained two plant transcription units (PTU). The first PTU was comprised of the Arabidopsis thaliana Ubiquitin 10 promoter (AtUbi10 promoter; Callis, et al., (1990) J. Biol. Chem., 265: 12486-12493), Trap yellow fluorescent protein fusion gene (TraP-YFP; US Patent App. 2007/0298412), and Agrobacterium tumefaciens ORF 23 3′ untranslated region (AtuORF23 3′UTR; U.S. Pat. No. 5,428,147). […]
# Agrobacterium-infiltrated tobacco leaves were severed from the plant, and placed into a petri-dish with water to prevent dehydration. The infiltrated tobacco leaves were observed under blue light excitation with long-pass filter glasses held in place using a Dark Reader Hand Lamp™ (Clare Chemical Research Co.; Dolores, Colo.) to identify undamaged areas of the leaf that were successfully expressing the YFP reporter proteins. […]
molecule,measurement,setting,value
"O=C(O)CNCP(=O)(O)O [glyphosate, reference compound]",glyphosate concentration controlling non-transformed plants,[1]; non-transformed corn plants,≥ 280 g ae/ha
B1,protection to glyphosate,[1],robust protection
B2,% Injury Ave,[2],9.5%
same,protection to glyphosate,[1],robust protection
B3,% Injury Ave,[2],9.3%
same,protection to glyphosate,[1],robust protection
B4,localization of YFP fluorescence signal (microscopy imaging),[3],accumulated within the chloroplasts
